Among the data in patent publication US20210214414A1 (Pfizer, published 2021) are EC50 and Kd values, retold here.

For test [1], the target named is T1, Human SLIT2-N (human, UniProt O94813 31-1121, limits assumed).
T1 construct: domain: SLIT2-N (N terminal fragment); Soluble analyte in SPR, d2-labelled in HTRF, overexpressed on HEK293 cells in flow cytometry; also called human SLIT2-N (N terminal fragment)
T1 sequence (looked up): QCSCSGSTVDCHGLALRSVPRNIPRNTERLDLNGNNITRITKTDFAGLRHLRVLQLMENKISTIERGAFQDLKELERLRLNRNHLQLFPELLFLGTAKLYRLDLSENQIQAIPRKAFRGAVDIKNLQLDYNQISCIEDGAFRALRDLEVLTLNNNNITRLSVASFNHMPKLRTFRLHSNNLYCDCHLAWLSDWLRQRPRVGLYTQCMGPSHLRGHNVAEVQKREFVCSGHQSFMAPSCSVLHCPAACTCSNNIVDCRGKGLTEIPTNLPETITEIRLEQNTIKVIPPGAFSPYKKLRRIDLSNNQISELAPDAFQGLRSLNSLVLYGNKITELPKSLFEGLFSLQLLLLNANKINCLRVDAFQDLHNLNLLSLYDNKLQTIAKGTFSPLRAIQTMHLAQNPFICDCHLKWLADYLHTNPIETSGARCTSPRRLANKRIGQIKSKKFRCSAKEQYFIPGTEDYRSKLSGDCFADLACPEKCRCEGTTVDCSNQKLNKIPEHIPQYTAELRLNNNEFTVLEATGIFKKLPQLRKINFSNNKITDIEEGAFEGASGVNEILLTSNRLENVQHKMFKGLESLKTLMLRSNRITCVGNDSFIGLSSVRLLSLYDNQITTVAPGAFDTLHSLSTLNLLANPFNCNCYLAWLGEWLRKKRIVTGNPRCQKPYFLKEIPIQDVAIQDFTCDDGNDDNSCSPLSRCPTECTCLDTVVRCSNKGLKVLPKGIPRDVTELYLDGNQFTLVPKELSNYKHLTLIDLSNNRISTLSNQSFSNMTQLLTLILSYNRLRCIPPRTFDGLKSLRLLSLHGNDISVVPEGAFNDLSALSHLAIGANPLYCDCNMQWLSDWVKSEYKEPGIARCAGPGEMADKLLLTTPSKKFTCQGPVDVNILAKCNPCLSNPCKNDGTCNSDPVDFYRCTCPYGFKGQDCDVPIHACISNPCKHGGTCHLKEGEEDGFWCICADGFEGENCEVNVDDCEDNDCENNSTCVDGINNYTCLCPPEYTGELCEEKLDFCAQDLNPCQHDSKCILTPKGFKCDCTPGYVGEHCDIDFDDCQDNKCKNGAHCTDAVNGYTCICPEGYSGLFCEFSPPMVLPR
Briefly: flow cytometry, AF647-labelled ROBO2-Fc 2.2 on HEK293 cells overexpressing human SLIT2-N. On the procedure:
After incubation, 150 μL of FACS buffer was added per well to wash the cells. After washing, cells were resuspended in buffer for data acquisition on a Fortessa Flow Cytometer.

In the next test the target is T2, Rat SLIT2-N (rat, UniProt Q9WVC1 31-766, limits assumed).
T2 construct: domain: SLIT2-N (N terminal fragment)
T2 sequence (looked up): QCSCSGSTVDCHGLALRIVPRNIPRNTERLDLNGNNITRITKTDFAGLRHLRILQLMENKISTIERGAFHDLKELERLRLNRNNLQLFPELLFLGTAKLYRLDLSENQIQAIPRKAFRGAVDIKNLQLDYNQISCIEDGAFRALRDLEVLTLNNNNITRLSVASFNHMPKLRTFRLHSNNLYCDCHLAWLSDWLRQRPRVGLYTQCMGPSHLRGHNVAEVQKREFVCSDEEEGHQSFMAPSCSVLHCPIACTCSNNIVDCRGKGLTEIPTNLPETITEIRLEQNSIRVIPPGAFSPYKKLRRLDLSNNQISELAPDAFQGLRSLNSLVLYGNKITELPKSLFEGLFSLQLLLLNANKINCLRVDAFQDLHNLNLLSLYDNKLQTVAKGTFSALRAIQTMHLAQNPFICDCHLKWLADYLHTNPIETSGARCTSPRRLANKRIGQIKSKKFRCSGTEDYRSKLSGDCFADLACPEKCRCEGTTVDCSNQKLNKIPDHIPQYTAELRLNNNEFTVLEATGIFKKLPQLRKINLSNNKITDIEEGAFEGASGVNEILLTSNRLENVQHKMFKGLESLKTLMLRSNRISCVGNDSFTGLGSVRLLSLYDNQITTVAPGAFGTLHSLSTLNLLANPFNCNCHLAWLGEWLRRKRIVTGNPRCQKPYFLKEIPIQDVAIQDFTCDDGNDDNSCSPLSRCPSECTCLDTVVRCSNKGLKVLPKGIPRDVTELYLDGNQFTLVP
The test can be described thus: SPR, ROBO2-Fc 2.2 captured by anti-human Fc on a C1 chip, rat SLIT2-N as analyte, 1:1 model. On the procedure:
(§1) HBS-EP was used as a diluent. […] An 8 point 2-fold dilution series was performed on the SLIT2 ligands, ranging from 2 nM to 15.6 pM using HBS-EPB as the diluent. […] Association of the indicated SLIT2 ligand was followed for 120 s and dissociation monitored for 180 s. The apparent binding affinity was determined using a simple 1:1 interaction model of the kinetic rate constants.

Test [2] has as its target T1, Human SLIT2-N. Briefly: SPR, ROBO2-Fc 2.2 captured by anti-human Fc on a C1 chip, human SLIT2-N as analyte, 1:1 model. On the procedure:
as §1

B1: ROBO2-Fc 2.2 (Fc fusion)
chain: SRLRQEDFPPRIVEHPSDVIVSKGEPTTLNCKAEGRPTPTIEWYKDGERVETDKDDPRSHRMLLPSGSLFFLRIVHGRRSKPDEGSYVCVARNYLGEAVSRNASLEVALLRDDFRQNPTDVVVAAGEPAILECQPPRGHPEPTIYWKKDKVRIDDKEERISIRGGKLMISNTRKSDAGMYTCVGTNMVGERDSDPAELTVFERGGSGGSEPKSSDKTHTCPPCPAPEAAGAPSVFLFPPKPKDTLMISRTPEVTCVVVDVSHEDPEVKFNWYVDGVEVHNAKTKPREEQYNSTYRVVSVLTVLHQDWLNGKEYKCKVSNKALPAPIEKTISKAKGQPREPQVYTLPPSREEMTKNQVSLTCLVKGFYPSDIAVEWESNGQPENNYKTTPPVLDSDGSFFLYSKLTVDKSRWQQGNVFSCSVMHEALHNHYTQKSLSLSPG
notes: Labelled with Alexa Fluor 647 in the flow cytometry assay; also called ROBO-Fc 2.2; ROBO2-Fc 2.2-AF647
In the test with Human SLIT2-N [1], B1 came in with an EC50 of 8.6 nM. The Kd with Rat SLIT2-N was determined as 0.543 nM; in the test with Human SLIT2-N [2], 0.279 nM.
